Positions count from the first letter of the chain named. Names and notes keep the numbering of the source.
B1: PR007070 (bispecific antibody, human IgG1, kappa)
heavy: QVQLVESGGGVVQPGMSLRLSCAASGFTFSSYGMYWVRQAPGKGQEWVASIRYTGTEKHYADSVKGRFTISRDNSKNTLYLEMNSLRVEDTAVYYCAKNRALFGVIPDDSDIRGQGTMVTVSSGGGGSQVQLVQSGAEVKKPGASVKVSCKASGYTFAGYYMYWVRQAPGQGLEWMGWINPDSGAPTYAQKFQGRVTMTRDTSISTAYMELSRLRSDDTAVYYCAREKIYYGSGNYYPSFDYWGQGTLVTVSSASTKGPSVFPLAPSSKSTSGGTAALGCLVKDYFPEPVTVSWNSGALTSGVHTFPAVLQSSGLYSLSSVVTVPSSSLGTQTYICNVNHKPSNTKVDKKVEPKSCDKTHTCPPCPAPEAAGAPSVFLFPPKPKDTLMISRTPEVTCVVVDVSHEDPEVKFNWYVDGVEVHNAKTKPREEQYNSTYRVVSVLTVLHQDWLNGKEYKCKVSNKALPAPIEKTISKAKGQPREPQVYTLPPSREEMTKNQVSLTCLVKGFYPSDIAVEWESNGQPENNYKTTPPVLDSDGSFFLYSKLTVDKSRWQQGNVFSCSVMHEALHNHYTQKSLSLSPGK
light: DIQLTQSPSFLSASVGDRVTITCRASQGISSYLAWYQQKPGKAPKLLIYAASTLQSGVPSRFSGSGSGTEFTLTISSLQPEDFATYYCQQLASYPWTFGQGTKVEIKRTVAAPSVFIFPPSDEQLKSGTASVVCLLNNFYPREAKVQWKVDNALQSGNSQESVTEQDSKDSTYSLSSTLTLSKADYEKHKVYACEVTHQGLSSPVTKSFNRGEC
notes: VH of PR005878 (PD-L1) - GS_5 - heavy chain of CD40 IgG PR006495; human IgG1 L234A/L235A/G237A; also called PD-L1×CD40
B2: PR007268 (bispecific antibody, human IgG1, kappa)
heavy: B1 heavy with T28D, L102I
light: B1 light with A92Y
notes: VH of PR006246 (PD-L1) - GS_5 - heavy chain of CD40 IgG PR006497; human IgG1 L234A/L235A/G237A; also called PD-L1×CD40
B3: PR007269 (bispecific antibody, human IgG1, kappa)
heavy: B1 heavy with T28D, L102I
light: B1 light with A92N, S93N
notes: VH of PR006246 (PD-L1) - GS_5 - heavy chain of CD40 IgG PR006511; human IgG1 L234A/L235A/G237A; also called PD-L1×CD40
B4: PR007151 (bispecific antibody, human IgG1, kappa)
heavy: B1 heavy
light: B1 light with A92V
notes: VH of PR005878 (PD-L1) - GS_5 - heavy chain of CD40 IgG PR006504; human IgG1 L234A/L235A/G237A; also called PD-L1×CD40
B5: PR007275 (bispecific antibody, human IgG1, kappa)
heavy: B1 heavy with T28D, D109A
light: B1 light
notes: VH of PR006247 (PD-L1) - GS_5 - heavy chain of CD40 IgG PR006495; human IgG1 L234A/L235A/G237A; also called PD-L1×CD40
B6: PR007273 (bispecific antibody, human IgG1, kappa)
heavy: B1 heavy with T28D, L102I, I106V, D109A
light: B1 light
notes: VH of PR006245 (PD-L1) - GS_5 - heavy chain of CD40 IgG PR006495; human IgG1 L234A/L235A/G237A; also called PD-L1×CD40

What was measured:
human CD40 [1] = target: T1, human CD40 (human, UniProt P25942 21-277); experiment: cell-based or functional assay
human PD-L1 [2] = target: T2, human PD-L1 (human, UniProt Q9NZQ7 19-290); experiment: FACS, CHO-K1/hPD-L1 cells
T2 construct: whole, on cells; also called hPD-L1; CD274
Experimental: (§1) Specifically, the cells expressing PD-L1 were digested and resuspended in PBS buffer containing 2% BSA. The cells were adjusted to a cell density of 1×10⁶ cells/mL, respectively. The cells were seeded in a 96-well V-bottom plate (Corning, #3894) at 100 μL/well, and the antibody to be tested at 2×final concentration with 4-fold concentration gradient dilution was then added at 100 μL/well. The cells were incubated at 4° C. for 2 hours in the dark. After the incubation, the cells were rinsed twice by adding pre-chilled PBS containing 2% BSA at 100 μL/well, and centrifuged at 500 g at 4° C. for 5 minutes, and the supernatant was discarded. […] The cells were washed twice by adding pre-chilled PBS containing 2% BSA at 100 µL/well, and centrifuged at 500 g at 4° C. for 5 minutes, and the supernatant was discarded. Finally, the cells were resuspended in pre-chilled PBS buffer containing 2% BSA at 200 μL/well. The fluorescence signal values were read using a BD FACS CANTOII flow cytometer or ACEA NovoCyte flow cytometer, and the data were processed and analyzed using FlowJo v10 software (FlowJo, LLC).

cynomolgus monkey PD-L1 = target: T3, cynomolgus monkey PD-L1 (cynomolgus monkey); experiment: FACS, CHO-K1/cyPD-L1 cells
T3 construct: whole, on cells; also called cyPD-L1
Experimental: as §1

human PD-L1 [3] = target: T2, human PD-L1; experiment: cell-based or functional assay
cynomolgus monkey CD40 = target: T4, cynomolgus monkey CD40 (cynomolgus monkey); experiment: FACS, CHO-K1/cyCD40 cells
T4 construct: whole, on cells; also called cyCD40
Experimental: (§2) The cells were incubated at 4° C. for 1 hours in the dark. After the incubation, the cells were rinsed twice by adding pre-chilled PBS at 100 μL/well, and centrifuged at 500 g at 4° C. for 5 minutes, and the supernatant was discarded. Then, a fluorescent secondary antibody (goat anti-human IgG (H+L) secondary antibody, Alexa Fluor® 488 conjugate, Invitrogen, #A11013, 1:1000 dilution) was added at 100 μL/well, and the cells were incubated at 4° C. for 30 minutes in the dark. The cells were washed twice with pre-chilled PBS at 200 μL/well, and centrifuged at 500 g at 4° C. for 5 minutes, and the supernatant was discarded. Finally, the cells were resuspended in pre-chilled PBS at 200 μL/well. The fluorescence signal values were read using a BD FACS CANTOII flow cytometer or ACEA NovoCyte flow cytometer, and the data were processed and analyzed using FlowJo v10 software (FlowJo, LLC).

human CD40 [4] = target: T1, human CD40; experiment: FACS, Raji cells
Experimental: as §2

human CD40 [5] = target: T1, human CD40; experiment: FACS, CHO-K1/hCD40 cells
Experimental: as §2

human PD-L1 [6] = target: T2, human PD-L1; experiment: FACS, NCI-H226 cells
Experimental: as §1

T2 sequence (Q9NZQ7 19-290): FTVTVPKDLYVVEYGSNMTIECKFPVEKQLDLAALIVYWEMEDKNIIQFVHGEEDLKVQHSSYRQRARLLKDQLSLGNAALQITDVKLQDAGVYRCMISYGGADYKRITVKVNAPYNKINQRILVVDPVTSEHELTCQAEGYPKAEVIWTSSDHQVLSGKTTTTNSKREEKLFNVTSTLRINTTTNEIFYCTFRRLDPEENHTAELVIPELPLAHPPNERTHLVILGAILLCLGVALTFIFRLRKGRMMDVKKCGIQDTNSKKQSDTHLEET
T1 sequence (P25942 21-277): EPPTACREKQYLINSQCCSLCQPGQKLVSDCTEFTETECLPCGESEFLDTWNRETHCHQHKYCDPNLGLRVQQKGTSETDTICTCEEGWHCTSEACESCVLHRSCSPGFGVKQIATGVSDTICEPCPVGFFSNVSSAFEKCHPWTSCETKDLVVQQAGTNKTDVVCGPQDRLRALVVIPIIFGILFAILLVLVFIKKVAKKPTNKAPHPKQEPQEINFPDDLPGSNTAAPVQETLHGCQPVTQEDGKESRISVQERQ

| Binder | EC50, HEK293-hCD40-NFκB reporter, + CHO-K1 (human CD40 [1]) | EC50, HEK293-hCD40-NFκB reporter, + CHO-K1/hPD-L1 (human CD40 [1]) | Maximum (RLU), HEK293-hCD40-NFκB reporter, + CHO-K1 (human CD40 [1]) | Maximum (RLU), HEK293-hCD40-NFκB reporter, + CHO-K1/hPD-L1 (human CD40 [1]) | EC50 (human PD-L1 [2]) | Maximum MFI (human PD-L1 [2]) | EC50 (cynomolgus monkey PD-L1) | Maximum MFI (cynomolgus monkey PD-L1) | EC50, Jurkat-NFAT-hPD1 reporter (human PD-L1 [3]) | Maximum (RLU), Jurkat-NFAT-hPD1 reporter (human PD-L1 [3]) | EC50 (cynomolgus monkey CD40) | Maximum MFI (cynomolgus monkey CD40) | EC50 (human CD40 [4]) | Maximum MFI (human CD40 [4]) | EC50 (human CD40 [5]) | Maximum MFI (human CD40 [5]) | EC50 (human PD-L1 [6]) | Maximum MFI (human PD-L1 [6]) |
| --- | --- | --- | --- | --- | --- | --- | --- | --- | --- | --- | --- | --- | --- | --- | --- | --- | --- | --- |
| B1 | 0.136 nM | 0.0138 nM | 26900 RLU | 31700 RLU | 1.15 nM | 20500 MFI | 0.779 nM | 4870 MFI | 0.175 nM | 2830 RLU | 15.6 nM | 93200 MFI | 1.36 nM | 6670 MFI | 2.67 nM | 15400 MFI | 0.313 nM | 862 MFI |
| B2 | 0.266 nM | 0.0571 nM | 156000 RLU | 286000 RLU | 1.08 nM | 19600 MFI | 0.68 nM | 4550 MFI | 0.181 nM | 2810 RLU | 2.8 nM | 65700 MFI | 1.38 nM | 7430 MFI | 1.65 nM | 16300 MFI | 0.42 nM | 869 MFI |
| B3 | 0.234 nM | 0.0692 nM | 189000 RLU | 271000 RLU | 1.12 nM | 19700 MFI | 0.714 nM | 4670 MFI | 0.162 nM | 2910 RLU | 2.57 nM | 53000 MFI | 1.46 nM | 7570 MFI | 2.4 nM | 16400 MFI | 0.521 nM | 869 MFI |
| B4 | 0.425 nM | 0.0362 nM | 4000 RLU | 4900 RLU | 1.14 nM | 20700 MFI | 0.754 nM | 4930 MFI | 0.35 nM | 4640 RLU | 3.76 nM | 75400 MFI | 1.3 nM | 6610 MFI | 2.36 nM | 16000 MFI | 0.215 nM | 928 MFI |
| B5 | 0.213 nM | 0.0558 nM | 231000 RLU | 371000 RLU | 1.29 nM | 20000 MFI | 0.807 nM | 4620 MFI | 0.234 nM | 2840 RLU | 4.12 nM | 66000 MFI | 1.58 nM | 7650 MFI | 2.57 nM | 14200 MFI | 0.764 nM | 959 MFI |
| B6 | 0.238 nM | 0.0598 nM | 199000 RLU | 333000 RLU | 1.39 nM | 19800 MFI | 0.89 nM | 4620 MFI | 0.109 nM | 2520 RLU | 4.2 nM | 71300 MFI | 1.43 nM | 7580 MFI | 2.05 nM | 14300 MFI | 0.773 nM | 914 MFI |

Source: patent US20250215089A1 (HARBOUR BIOMED SHANGHAI, published 2025)
